Data reported in the supplement of paper PMC9732359.
± gives the uncertainty stated by the source.

Assay: protein stability index of a GFP-peptide fusion (yeast GPS) (PSI 1-4); higher = more stable; sorted into four equal gates, so the index is relative within each strain
Procedure, shortened: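 Tiled 17-residue yeast protein peptides were fused downstream of GFP in a plasmid that also expresses Cherry, and the pooled library was carried in yeast. Mid-log cultures in leucine-free medium were sorted into four equal gates by GFP/Cherry fluorescence ratio, and plasmids from each gate were PCR-amplified and Illumina-sequenced, with reads assigned to strains by barcodes. The protein stability index for each peptide was each gate's read frequency times its gate number, summed.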

CTLTADGAYALSASWDK [ASC1]
protein stability index (doa10∆): 3.08 ± 0.051
protein stability index (pdr5∆): 3.25 ± 0.051
protein stability index (san1∆): 3.19 ± 0.075
protein stability index (ubr1∆): 3.19 ± 0.038

SFGNREEFINKLVKAMN [RPL7B]
protein stability index (doa10∆): 2.03 ± 0.13
protein stability index (pdr5∆): 1.94 ± 0.17
protein stability index (ubr1∆): 2.75 ± 0.073

AVINIRDDGKRELLVEG [RPO31]
protein stability index (doa10∆): 3.56 ± 0.2
protein stability index (pdr5∆): 3.06 ± 0.22
protein stability index (ubr1∆): 3.14 ± 0.1

RAVANRTDATFIRVIGS [RPT1]
protein stability index (doa10∆): 3.22 ± 0.1
protein stability index (pdr5∆): 3.26 ± 0.069
protein stability index (san1∆): 3.17 ± 0.082
protein stability index (ubr1∆): 3.09 ± 0.062

IFLAERRILPKPSRTSR [RPS7A]
protein stability index (pdr5∆): 3.15 ± 0.21
protein stability index (san1∆): 2.8 ± 0.14
protein stability index (ubr1∆): 2.89 ± 0.13

QGNYPTTSYIKEQENIT [DPB4]
protein stability index (doa10∆): 3 ± 0.06
protein stability index (pdr5∆): 3.1 ± 0.06
protein stability index (san1∆): 3.02 ± 0.041
protein stability index (ubr1∆): 3.18 ± 0.075

SQDATKVDATPEESKPI [YLR335W/NUP2]
protein stability index (doa10∆): 2.87 ± 0.12
protein stability index (pdr5∆): 3.17 ± 0.089
protein stability index (san1∆): 2.81 ± 0.08
protein stability index (ubr1∆): 3.18 ± 0.06

AKLIRSAIEHTTLKSVT [RPO21]
protein stability index (doa10∆): 3.46 ± 0.15
protein stability index (pdr5∆): 2.96 ± 0.2
protein stability index (san1∆): 3.19 ± 0.19
protein stability index (ubr1∆): 3.04 ± 0.12

LDNKGSGEDAEEELWNS [YIL149C/MLP2]
protein stability index (doa10∆): 3.31 ± 0.17
protein stability index (pdr5∆): 2.92 ± 0.14
protein stability index (san1∆): 3.16 ± 0.093
protein stability index (ubr1∆): 3.22 ± 0.1

EKVTRYNRHKLQELIVN [RPO31]
protein stability index (doa10∆): 1.74 ± 0.046
protein stability index (pdr5∆): 1.44 ± 0.043
protein stability index (san1∆): 1.82 ± 0.058
protein stability index (ubr1∆): 1.44 ± 0.041

EGGEAEFIFGTYNMIDA [ARP7]
protein stability index (doa10∆): 2.79 ± 0.059
protein stability index (pdr5∆): 2.66 ± 0.055
protein stability index (san1∆): 2.52 ± 0.054
protein stability index (ubr1∆): 2.83 ± 0.045

QRESQIGAAELNENARE [SNF12]
protein stability index (doa10∆): 3.22 ± 0.075
protein stability index (pdr5∆): 3.19 ± 0.063
protein stability index (san1∆): 2.93 ± 0.12
protein stability index (ubr1∆): 3.35 ± 0.044

WKATYSNEFKCMSVITA [YGL100W/SEH1]
protein stability index (doa10∆): 1.87 ± 0.056
protein stability index (pdr5∆): 1.64 ± 0.051
protein stability index (san1∆): 1.51 ± 0.073
protein stability index (ubr1∆): 2.07 ± 0.032

SYTAFSRLTLLLRALKT [PRP8]
protein stability index (doa10∆): 1.27 ± 0.042
protein stability index (pdr5∆): 1.19 ± 0.037
protein stability index (san1∆): 1.24 ± 0.082
protein stability index (ubr1∆): 1.25 ± 0.035

MAQTATQQQPGAPGANA [SRP54]
protein stability index (doa10∆): 3.31 ± 0.065
protein stability index (pdr5∆): 3.22 ± 0.088
protein stability index (san1∆): 3.33 ± 0.054
protein stability index (ubr1∆): 3.21 ± 0.05

IKNGRIYFTVPNEFEIQ [RGR1]
protein stability index (doa10∆): 2.62 ± 0.06
protein stability index (pdr5∆): 2.49 ± 0.045
protein stability index (san1∆): 2.45 ± 0.049
protein stability index (ubr1∆): 2.57 ± 0.043

GAGSIFTSHTRLRQGAA [RPL2A]
protein stability index (doa10∆): 3.05 ± 0.1
protein stability index (pdr5∆): 3.2 ± 0.088
protein stability index (san1∆): 3.17 ± 0.049
protein stability index (ubr1∆): 3.25 ± 0.072

VKLGLNSKMPTRFPPAV [PRP8]
protein stability index (doa10∆): 2.78 ± 0.057
protein stability index (pdr5∆): 3.06 ± 0.076
protein stability index (san1∆): 2.85 ± 0.051
protein stability index (ubr1∆): 2.73 ± 0.06

MTVNDQPIEKNGDKMPL [YJR042W/NUP85]
protein stability index (doa10∆): 2.73 ± 0.066
protein stability index (pdr5∆): 3.04 ± 0.068
protein stability index (san1∆): 2.45 ± 0.086
protein stability index (ubr1∆): 3.1 ± 0.042

KPWFATVNGQARDLATM [FAS1]
protein stability index (doa10∆): 3.01 ± 0.11
protein stability index (pdr5∆): 3.08 ± 0.1
protein stability index (san1∆): 3 ± 0.083
protein stability index (ubr1∆): 3.05 ± 0.064

FPFVLKVDNDLRIELQS [SRB8]
protein stability index (doa10∆): 2.98 ± 0.12
protein stability index (pdr5∆): 3.05 ± 0.1
protein stability index (san1∆): 2.61 ± 0.098
protein stability index (ubr1∆): 3.31 ± 0.14

LTSTKVKQLENVSSNIV [RPS20]
protein stability index (doa10∆): 1.75 ± 0.075
protein stability index (pdr5∆): 2.16 ± 0.12
protein stability index (san1∆): 2.65 ± 0.11
protein stability index (ubr1∆): 3.19 ± 0.075

KKNKRALPNIENDIIKL [BRR2]
protein stability index (doa10∆): 3.09 ± 0.054
protein stability index (pdr5∆): 3.36 ± 0.062
protein stability index (san1∆): 3.23 ± 0.04
protein stability index (ubr1∆): 3.34 ± 0.037

SQPKIGYGSNKKTKFLS [RPL32]
protein stability index (doa10∆): 1.23 ± 0.15
protein stability index (pdr5∆): 1.52 ± 0.16
protein stability index (ubr1∆): 1.38 ± 0.096

QLLEKAPIPIREDIDDP [BRR2]
protein stability index (doa10∆): 2.64 ± 0.064
protein stability index (pdr5∆): 2.55 ± 0.066
protein stability index (san1∆): 2.37 ± 0.088
protein stability index (ubr1∆): 1.92 ± 0.058

NISNNLQKALTVKTNDE [RPN8]
protein stability index (doa10∆): 3.02 ± 0.16
protein stability index (pdr5∆): 3 ± 0.11
protein stability index (san1∆): 2.82 ± 0.14
protein stability index (ubr1∆): 2.88 ± 0.067
